We go through one protein from article PMC7840982, “Purification of Crimean–Congo hemorrhagic fever virus nucleoprotein and its utility for serological diagnosis” (Scientific Reports, 2021).

This series deals with the molecule itself. Nature of the series: negative-stain transmission electron microscopy.

B1: Crimean–Congo hemorrhagic fever virus nucleoprotein (strain IbAr10200), recombinant, untagged (natural protein)
chain: MENKIEVNNKDEMNRWFEEFKKGNGLVDTFTNSYSFCESVPNLDRFVFQMASATDDAQKDSIYASALVEATKFCAPIYECAWVSSTGIVKKGLEWFEKNAGTIKSWDESYTELKVDVPKIEQLTGYQQAALKWRKDIGFRVNANTAALSNKVLAEYKVPGEIVMSVKEMLSDMIRRRNLILNRGGDENPRGPVSHEHVDWCREFVKGKYIMAFNPPWGDINKSGRSGIALVATGLAKLAETEGKGIFDEAKKTVEALNGYLDKHKDEVDRASADSMITNLLKHIAKAQELYKNSSALRAQSAQIDTAFSSYYWLYKAGVTPETFPTVSQFLFELGKQPRGTKKMKKALLSTPMKWGKKLYELFADDSFQQNRIYMHPAVLTAGRISEMGVCFGTIPVANPDDAAQGSGHTKSILNLRTNTETNNPCAKTIVKLFEVQKTGFNIQDMDIVASEHLLHQSLVGKQSPFQNAYNVKGNATSANII
notes: also called CCHFV NP; NP
For the protein B1, the binding result was “binds”.
